The source of these data is publication PMC10786891, “Massively parallel profiling of RNA-targeting CRISPR-Cas13d”.

Broadly, the Kd is the constant that tells how readily two partners part at equilibrium.

Sequences and labels used below:
B1: target 2 MT 5'PFS GAA 3'PFS UAU (mixed)
RNA 1: CACCCGUGCAAAAUUGCAGGGGUCUAAAACCUUCUCCAAAUUGUUUCAUCCU
RNA 2: GGGAAUGGAUCCACAUCUACGAAUUCGAAAGGAUGAAACAAUUUGGAGAAGUAUAGAUCGGAAGAGCACACGU
B2: target 2 MT 5'PFS AAG 3'PFS AGG (mixed)
RNA 1: CACCCGUGCAAAAUUGCAGGGGUCUAAAACCUUCUCCAAAUUGUUUCAUCCU
RNA 2: GGGAAUGGAUCCACAUCUACGAAUUCAAGAGGAUGAAACAAUUUGGAGAAGAGGAGAUCGGAAGAGCACACGU
B3: target 2 MT 5'PFS ACA 3'PFS CUC (mixed)
RNA 1: CACCCGUGCAAAAUUGCAGGGGUCUAAAACCUUCUCCAAAUUGUUUCAUCCU
RNA 2: GGGAAUGGAUCCACAUCUACGAAUUCACAAGGAUGAAACAAUUUGGAGAAGCUCAGAUCGGAAGAGCACACGU
B4: target 2 MT 5'PFS GGG 3'PFS AUC (mixed)
RNA 1: CACCCGUGCAAAAUUGCAGGGGUCUAAAACCUUCUCCAAAUUGUUUCAUCCU
RNA 2: GGGAAUGGAUCCACAUCUACGAAUUCGGGAGGAUGAAACAAUUUGGAGAAGAUCAGAUCGGAAGAGCACACGU
B5: target 2 MT 5'PFS AAG 3'PFS AGA (mixed)
RNA 1: CACCCGUGCAAAAUUGCAGGGGUCUAAAACCUUCUCCAAAUUGUUUCAUCCU
RNA 2: GGGAAUGGAUCCACAUCUACGAAUUCAAGAGGAUGAAACAAUUUGGAGAAGAGAAGAUCGGAAGAGCACACGU
B6: target 2 MT 5'PFS UAU 3'PFS ACU (mixed)
RNA 1: CACCCGUGCAAAAUUGCAGGGGUCUAAAACCUUCUCCAAAUUGUUUCAUCCU
RNA 2: GGGAAUGGAUCCACAUCUACGAAUUCUAUAGGAUGAAACAAUUUGGAGAAGACUAGAUCGGAAGAGCACACGU
B7: target 2 MT 5'PFS AAG 3'PFS AGC (mixed)
RNA 1: CACCCGUGCAAAAUUGCAGGGGUCUAAAACCUUCUCCAAAUUGUUUCAUCCU
RNA 2: GGGAAUGGAUCCACAUCUACGAAUUCAAGAGGAUGAAACAAUUUGGAGAAGAGCAGAUCGGAAGAGCACACGU
B8: target 2 MT 5'PFS AUA 3'PFS CAU (mixed)
RNA 1: CACCCGUGCAAAAUUGCAGGGGUCUAAAACCUUCUCCAAAUUGUUUCAUCCU
RNA 2: GGGAAUGGAUCCACAUCUACGAAUUCAUAAGGAUGAAACAAUUUGGAGAAGCAUAGAUCGGAAGAGCACACGU
B9: target 2 MT 5'PFS UAU 3'PFS ACG (mixed)
RNA 1: CACCCGUGCAAAAUUGCAGGGGUCUAAAACCUUCUCCAAAUUGUUUCAUCCU
RNA 2: GGGAAUGGAUCCACAUCUACGAAUUCUAUAGGAUGAAACAAUUUGGAGAAGACGAGAUCGGAAGAGCACACGU
B10: target 2 MT 5'PFS UGG 3'PFS UAC (mixed)
RNA 1: CACCCGUGCAAAAUUGCAGGGGUCUAAAACCUUCUCCAAAUUGUUUCAUCCU
RNA 2: GGGAAUGGAUCCACAUCUACGAAUUCUGGAGGAUGAAACAAUUUGGAGAAGUACAGAUCGGAAGAGCACACGU
B11: target 2 MT 5'PFS GGG 3'PFS AUG (mixed)
RNA 1: CACCCGUGCAAAAUUGCAGGGGUCUAAAACCUUCUCCAAAUUGUUUCAUCCU
RNA 2: GGGAAUGGAUCCACAUCUACGAAUUCGGGAGGAUGAAACAAUUUGGAGAAGAUGAGAUCGGAAGAGCACACGU
B12: target 2 MT 5'PFS AUG 3'PFS UGU (mixed)
RNA 1: CACCCGUGCAAAAUUGCAGGGGUCUAAAACCUUCUCCAAAUUGUUUCAUCCU
RNA 2: GGGAAUGGAUCCACAUCUACGAAUUCAUGAGGAUGAAACAAUUUGGAGAAGUGUAGAUCGGAAGAGCACACGU
B13: target 2 MT 5'PFS AAG 3'PFS CGA (mixed)
RNA 1: CACCCGUGCAAAAUUGCAGGGGUCUAAAACCUUCUCCAAAUUGUUUCAUCCU
RNA 2: GGGAAUGGAUCCACAUCUACGAAUUCAAGAGGAUGAAACAAUUUGGAGAAGCGAAGAUCGGAAGAGCACACGU
B14: target 2 MT 5'PFS GGG 3'PFS AUA (mixed)
RNA 1: CACCCGUGCAAAAUUGCAGGGGUCUAAAACCUUCUCCAAAUUGUUUCAUCCU
RNA 2: GGGAAUGGAUCCACAUCUACGAAUUCGGGAGGAUGAAACAAUUUGGAGAAGAUAAGAUCGGAAGAGCACACGU
B15: target 2 MT 5'PFS GCC 3'PFS ACG (mixed)
RNA 1: CACCCGUGCAAAAUUGCAGGGGUCUAAAACCUUCUCCAAAUUGUUUCAUCCU
RNA 2: GGGAAUGGAUCCACAUCUACGAAUUCGCCAGGAUGAAACAAUUUGGAGAAGACGAGAUCGGAAGAGCACACGU
B16: target 2 MT 5'PFS GCU 3'PFS CGC (mixed)
RNA 1: CACCCGUGCAAAAUUGCAGGGGUCUAAAACCUUCUCCAAAUUGUUUCAUCCU
RNA 2: GGGAAUGGAUCCACAUCUACGAAUUCGCUAGGAUGAAACAAUUUGGAGAAGCGCAGAUCGGAAGAGCACACGU
B17: target 2 MT 5'PFS AAG 3'PFS CGC (mixed)
RNA 1: CACCCGUGCAAAAUUGCAGGGGUCUAAAACCUUCUCCAAAUUGUUUCAUCCU
RNA 2: GGGAAUGGAUCCACAUCUACGAAUUCAAGAGGAUGAAACAAUUUGGAGAAGCGCAGAUCGGAAGAGCACACGU
B18: target 2 MT 5'PFS ACC 3'PFS ACA (mixed)
RNA 1: CACCCGUGCAAAAUUGCAGGGGUCUAAAACCUUCUCCAAAUUGUUUCAUCCU
RNA 2: GGGAAUGGAUCCACAUCUACGAAUUCACCAGGAUGAAACAAUUUGGAGAAGACAAGAUCGGAAGAGCACACGU
B19: target 2 MT 5'PFS CAG 3'PFS UCC (mixed)
RNA 1: CACCCGUGCAAAAUUGCAGGGGUCUAAAACCUUCUCCAAAUUGUUUCAUCCU
RNA 2: GGGAAUGGAUCCACAUCUACGAAUUCCAGAGGAUGAAACAAUUUGGAGAAGUCCAGAUCGGAAGAGCACACGU
B20: target 2 MT 5'PFS GCC 3'PFS ACU (mixed)
RNA 1: CACCCGUGCAAAAUUGCAGGGGUCUAAAACCUUCUCCAAAUUGUUUCAUCCU
RNA 2: GGGAAUGGAUCCACAUCUACGAAUUCGCCAGGAUGAAACAAUUUGGAGAAGACUAGAUCGGAAGAGCACACGU
B21: target 2 MT 5'PFS GGG 3'PFS AUU (mixed)
RNA 1: CACCCGUGCAAAAUUGCAGGGGUCUAAAACCUUCUCCAAAUUGUUUCAUCCU
RNA 2: GGGAAUGGAUCCACAUCUACGAAUUCGGGAGGAUGAAACAAUUUGGAGAAGAUUAGAUCGGAAGAGCACACGU
B22: target 2 MT 5'PFS ACA 3'PFS CUU (mixed)
RNA 1: CACCCGUGCAAAAUUGCAGGGGUCUAAAACCUUCUCCAAAUUGUUUCAUCCU
RNA 2: GGGAAUGGAUCCACAUCUACGAAUUCACAAGGAUGAAACAAUUUGGAGAAGCUUAGAUCGGAAGAGCACACGU
B23: target 2 MT 5'PFS AAG 3'PFS CGG (mixed)
RNA 1: CACCCGUGCAAAAUUGCAGGGGUCUAAAACCUUCUCCAAAUUGUUUCAUCCU
RNA 2: GGGAAUGGAUCCACAUCUACGAAUUCAAGAGGAUGAAACAAUUUGGAGAAGCGGAGAUCGGAAGAGCACACGU
B24: target 2 MT 5'PFS GCC 3'PFS ACA (mixed)
RNA 1: CACCCGUGCAAAAUUGCAGGGGUCUAAAACCUUCUCCAAAUUGUUUCAUCCU
RNA 2: GGGAAUGGAUCCACAUCUACGAAUUCGCCAGGAUGAAACAAUUUGGAGAAGACAAGAUCGGAAGAGCACACGU
B25: target 1 C7A,A18C (mixed)
RNA 1: CACCCGUGCAAAAAUGCAGGGGUCUAAAACUGAGCGGAUAACCUCUCUAUGG
RNA 2: GGGAAUGGAUCCACAUCUACGAAUUCGUACCAUCGAGAGGUUAUACGCUCACCGAGAUCGGAAGAGCACACGU
B26: target 1 C6G,G15C (mixed)
RNA 1: CACCCGUGCAAAAAUGCAGGGGUCUAAAACUGAGCGGAUAACCUCUCUAUGG
RNA 2: GGGAAUGGAUCCACAUCUACGAAUUCGUACCAUAGACAGGUUAUCGGCUCACCGAGAUCGGAAGAGCACACGU
B27: target 1 insU 3' of 15,insA 3' of 8 (mixed)
RNA 1: CACCCGUGCAAAAAUGCAGGGGUCUAAAACUGAGCGGAUAACCUCUCUAUGG
RNA 2: GGGAAUGGAUCCACAUCUACGAAUUCGUACCAUAGAGUAGGUUAUACCGCUCACCGAGAUCGGAAGAGCACACGU

For the data set, the target named is T1, EsCas13d, nuclease-dead (Eubacterium siraeum, UniProt B0MS50, R295A;H300A;R849A;H854A).
T1 sequence: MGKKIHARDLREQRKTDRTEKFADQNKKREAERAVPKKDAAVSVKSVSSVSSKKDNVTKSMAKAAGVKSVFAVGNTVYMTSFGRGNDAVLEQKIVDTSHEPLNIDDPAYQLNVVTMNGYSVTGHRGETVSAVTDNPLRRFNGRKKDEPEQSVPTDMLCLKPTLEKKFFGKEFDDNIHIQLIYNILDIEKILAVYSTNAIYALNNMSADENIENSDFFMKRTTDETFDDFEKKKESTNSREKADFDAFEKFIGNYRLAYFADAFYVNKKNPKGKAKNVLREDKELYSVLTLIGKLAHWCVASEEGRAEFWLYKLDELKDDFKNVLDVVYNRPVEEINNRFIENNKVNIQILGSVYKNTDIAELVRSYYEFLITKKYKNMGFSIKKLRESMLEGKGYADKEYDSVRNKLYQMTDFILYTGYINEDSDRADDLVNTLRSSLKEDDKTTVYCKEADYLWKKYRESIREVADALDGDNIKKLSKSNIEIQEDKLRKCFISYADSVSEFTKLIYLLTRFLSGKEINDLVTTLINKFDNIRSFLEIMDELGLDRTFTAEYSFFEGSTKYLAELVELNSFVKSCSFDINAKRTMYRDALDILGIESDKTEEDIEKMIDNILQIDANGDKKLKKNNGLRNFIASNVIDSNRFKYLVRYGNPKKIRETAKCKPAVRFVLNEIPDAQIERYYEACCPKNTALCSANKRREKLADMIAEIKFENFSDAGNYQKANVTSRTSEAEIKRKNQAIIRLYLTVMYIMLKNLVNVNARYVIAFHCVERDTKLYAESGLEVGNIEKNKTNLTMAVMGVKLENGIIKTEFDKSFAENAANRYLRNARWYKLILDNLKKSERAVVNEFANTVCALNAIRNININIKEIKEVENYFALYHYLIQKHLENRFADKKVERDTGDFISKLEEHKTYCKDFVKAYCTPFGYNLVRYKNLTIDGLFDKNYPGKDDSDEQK
The data set is described as follows: crRNA (strand 1, pre-loaded); Mg2+; 40 mM Tris-HCl pH 7.5, 150 mM NaCl, 6 mM MgCl2, 1 mM DTT, 0.1% Tween-20, 0.2 mg/ml BSA; 25 C; 10 min per concentration, then washed. As to conditions: tags: His6-TwinStrep-SUMO cleaved; N-terminal SNAP kept (SNAP-Surface 488); label: 3' end held by stalled T7 RNA polymerase.
On to B1, for which the Kd was determined as 7.8 ± 1 nM.

Take B2: the Kd worked out at 5.7 ± 1 nM.

Consider B3, for which the Kd came to 6.7 ± 1 nM.

For the molecule B4, the Kd was determined as 8.5 ± 0.8 nM. In the case of B5 it was 2.5 ± 0.28 nM; in that of B6, 76 ± 25 nM. Next, B7: 3.7 ± 0.4 nM.

B8: binding was characterised by a dissociation constant (Kd) of 4.6 ± 0.8 nM.

B9 came in with a Kd of 58 ± 6 nM. Next, B10: 8.6 ± 0.9 nM; B11: 9.2 ± 0.6 nM; B12: 21 ± 2.6 nM. Next, B13: 4.5 ± 0.5 nM; B14: 7.1 ± 0.5 nM. In the case of B15 it was 12.2 ± 1.4 nM; in that of B16, 12.1 ± 1.3 nM; in that of B17, 3.34 ± 0.31 nM. As to B18, the Kd was 8 ± 4 nM.

As to B19, binding was characterised by a dissociation constant (Kd) of 29 ± 8 nM. This Kd is about 3.6-fold higher than that of the molecule before. On to B20, for which the Kd amounted to 12.9 ± 1.9 nM. In the case of B21 it was 9 ± 0.8 nM; in that of B22, 12 ± 4 nM; in that of B23, 3.4 ± 0.5 nM. Next, B24: 10.8 ± 1.1 nM. Next, B25: 70 ± 6 nM.

The molecule B26 came in with a Kd of 47 ± 10 nM.

The molecule B27 returned a Kd of 16.8 ± 2 nM. This Kd lies about 2.8-fold lower than the previous one.
